From the supplement of paper PMC9112550, “Optimization of the antimicrobial peptide Bac7 by deep mutational scanning” (BMC Biology, 2022)
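Also: peptides expressed intracellularly from a pBAD plasmid library in pooled LB shake-flask culture, induced with 0.3% L-arabinose, DNA abundance read by NGS, three biological replicates, DESeq2 with apeglm shrinkage.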

These sequences were tested on Escherichia coli TOP10 (assay: shrunken log2 fold change of peptide-encoding DNA abundance (4.5 h post-induction vs induction); higher = less antimicrobial activity (less host growth inhibition)). Details: time post-induction: 4.5 h; library: site-saturation at positions 5, 18, 19, 20.
RRIRTRPPRLPRPRPRPTHLPRP was tested, and the “shrunken log2 fold change” value was -0.0332. With RRIRRRPPRLPRPRPRPCDFPRP the “shrunken log2 fold change” value was -0.128. With RRIRMRPPRLPRPRPRPWYNPRP the “shrunken log2 fold change” value was -0.044. For RRIRPRPPRLPRPRPRPTERPRP, the “shrunken log2 fold change” value was 0.649. For RRIRRRPPRLPRPRPRPHNLPRP, the “shrunken log2 fold change” value was -0.176. With RRIRMRPPRLPRPRPRPPRMPRP the “shrunken log2 fold change” value was 0.893. With RRIRCRPPRLPRPRPRPGVNPRP the “shrunken log2 fold change” value was -0.584. For RRIRFRPPRLPRPRPRPGSQPRP, the “shrunken log2 fold change” value was -0.117. For RRIRERPPRLPRPRPRPCMKPRP, the “shrunken log2 fold change” value was -0.506. For RRIRDRPPRLPRPRPRPQWEPRP, the “shrunken log2 fold change” value was 0.033. For RRIRHRPPRLPRPRPRPGAAPRP, the “shrunken log2 fold change” value was 0.324. With RRIRDRPPRLPRPRPRPAELPRP the “shrunken log2 fold change” value was 0.0334. With RRIRVRPPRLPRPRPRPIEYPRP the “shrunken log2 fold change” value was -0.05. RRIRNRPPRLPRPRPRPLNQPRP was tested, and the “shrunken log2 fold change” value was -0.225. For RRIRKRPPRLPRPRPRPSHDPRP, the “shrunken log2 fold change” value was -0.203. In the case of RRIRTRPPRLPRPRPRPQDIPRP, the “shrunken log2 fold change” value is reported as -0.0501. In the case of RRIRIRPPRLPRPRPRPVNGPRP, the “shrunken log2 fold change” value is reported as -0.0532. RRIRYRPPRLPRPRPRPTIMPRP was tested, and the “shrunken log2 fold change” value was -1.29. For RRIRDRPPRLPRPRPRPYCTPRP, the “shrunken log2 fold change” value was -0.253. RRIRLRPPRLPRPRPRPQCCPRP was tested, and the “shrunken log2 fold change” value was 0.0421. In the case of RRIRWRPPRLPRPRPRPAQFPRP, the “shrunken log2 fold change” value is reported as 0.248. For RRIRRRPPRLPRPRPRPMPYPRP, the “shrunken log2 fold change” value was -0.0473. With RRIRYRPPRLPRPRPRPQCDPRP the “shrunken log2 fold change” value was -0.529. RRIRRRPPRLPRPRPRPGVCPRP was tested, and the “shrunken log2 fold change” value was 0.369. In the case of RRIRMRPPRLPRPRPRPKLSPRP, the “shrunken log2 fold change” value is reported as 0.982. In the case of RRIRCRPPRLPRPRPRPWYSPRP, the “shrunken log2 fold change” value is reported as -0.361. In the case of RRIRSRPPRLPRPRPRPLQNPRP, the “shrunken log2 fold change” value is reported as -0.0368. With RRIRYRPPRLPRPRPRPIEKPRP the “shrunken log2 fold change” value was -0.203. RRIRARPPRLPRPRPRPYTRPRP was tested, and the “shrunken log2 fold change” value was -0.124. With RRIRCRPPRLPRPRPRPWRLPRP the “shrunken log2 fold change” value was 0.0337. RRIRVRPPRLPRPRPRPRTSPRP was tested, and the “shrunken log2 fold change” value was 0.0612. For RRIRERPPRLPRPRPRPQCMPRP, the “shrunken log2 fold change” value was -0.586. In the case of RRIRFRPPRLPRPRPRPRCHPRP, the “shrunken log2 fold change” value is reported as -0.0965. RRIRHRPPRLPRPRPRPSLNPRP was tested, and the “shrunken log2 fold change” value was -0.51. For RRIRKRPPRLPRPRPRPCDEPRP, the “shrunken log2 fold change” value was 0.121. RRIRIRPPRLPRPRPRPSNEPRP was tested, and the “shrunken log2 fold change” value was -0.945. In the case of RRIRMRPPRLPRPRPRPCRWPRP, the “shrunken log2 fold change” value is reported as 0.00911. In the case of RRIRGRPPRLPRPRPRPSCDPRP, the “shrunken log2 fold change” value is reported as 0.543. RRIRYRPPRLPRPRPRPVYKPRP was tested, and the “shrunken log2 fold change” value was -0.924. For RRIRDRPPRLPRPRPRPPSIPRP, the “shrunken log2 fold change” value was -0.0216. With RRIRNRPPRLPRPRPRPGMPPRP the “shrunken log2 fold change” value was -0.107. In the case of RRIRRRPPRLPRPRPRPDINPRP, the “shrunken log2 fold change” value is reported as -0.243. For RRIRSRPPRLPRPRPRPDVHPRP, the “shrunken log2 fold change” value was -0.0954. With RRIRNRPPRLPRPRPRPRNNPRP the “shrunken log2 fold change” value was -0.45. For RRIRGRPPRLPRPRPRPPTYPRP, the “shrunken log2 fold change” value was 0.206. For RRIRARPPRLPRPRPRPKIHPRP, the “shrunken log2 fold change” value was -0.0619. RRIRERPPRLPRPRPRPPMSPRP was tested, and the “shrunken log2 fold change” value was -0.373. In the case of RRIRRRPPRLPRPRPRPGFDPRP, the “shrunken log2 fold change” value is reported as 0.289. In the case of RRIRQRPPRLPRPRPRPDYIPRP, the “shrunken log2 fold change” value is reported as -0.0798. For RRIRKRPPRLPRPRPRPNYVPRP, the “shrunken log2 fold change” value was -0.087. RRIRGRPPRLPRPRPRPHCIPRP was tested, and the “shrunken log2 fold change” value was -0.0261. With RRIRDRPPRLPRPRPRPYHYPRP the “shrunken log2 fold change” value was -0.688. RRIRRRPPRLPRPRPRPKYKPRP was tested, and the “shrunken log2 fold change” value was -0.148. In the case of RRIRMRPPRLPRPRPRPVQAPRP, the “shrunken log2 fold change” value is reported as 1.26. For RRIRGRPPRLPRPRPRPVVIPRP, the “shrunken log2 fold change” value was -0.253. In the case of RRIRARPPRLPRPRPRPCCGPRP, the “shrunken log2 fold change” value is reported as 0.525. In the case of RRIRFRPPRLPRPRPRPQQYPRP, the “shrunken log2 fold change” value is reported as -0.552. RRIRDRPPRLPRPRPRPFMDPRP was tested, and the “shrunken log2 fold change” value was -0.112. RRIRIRPPRLPRPRPRPDSIPRP was tested, and the “shrunken log2 fold change” value was -0.00884. With RRIRSRPPRLPRPRPRPQEIPRP the “shrunken log2 fold change” value was -0.16. For RRIRFRPPRLPRPRPRPSYSPRP, the “shrunken log2 fold change” value was -0.903. In the case of RRIRIRPPRLPRPRPRPERLPRP, the “shrunken log2 fold change” value is reported as 0.0553. For RRIRQRPPRLPRPRPRPAGQPRP, the “shrunken log2 fold change” value was -0.143.
